Patent US20210324076A1 (AMPHIVENA THERAPEUTICS, published 2021)
Values joined by “and” are separate entries in the source; they are usually repeats but may differ in a detail not shown here. Equal entries are not always repeated.

Experiments:
human CD33 [1] = target: T1, human CD33 (human, UniProt P20138 18-364); assay: cell-based or functional assay
human CD33 [2] = target: T1, human CD33; assay: cell-based or functional assay; remark: listed apart in the source
human CD3 [3] = target: T2, human CD3 (human, UniProt P07766 23-207; P09693 23-182; P04234 22-171; P20963 22-164); assay: cell-based or functional assay
T2 sequence (P07766 23-207, chain 1 of 4): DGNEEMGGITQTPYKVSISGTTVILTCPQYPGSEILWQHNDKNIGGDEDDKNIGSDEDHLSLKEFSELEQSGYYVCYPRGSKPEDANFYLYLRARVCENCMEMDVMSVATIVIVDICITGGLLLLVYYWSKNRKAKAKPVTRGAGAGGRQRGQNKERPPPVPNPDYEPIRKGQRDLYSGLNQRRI
T2 sequence (P09693 23-182, chain 2 of 4): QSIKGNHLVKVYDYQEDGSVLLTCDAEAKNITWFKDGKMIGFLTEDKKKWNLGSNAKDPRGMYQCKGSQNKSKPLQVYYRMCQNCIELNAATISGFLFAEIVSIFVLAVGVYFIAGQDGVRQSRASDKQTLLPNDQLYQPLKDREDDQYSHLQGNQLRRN
T2 sequence (P04234 22-171, chain 3 of 4): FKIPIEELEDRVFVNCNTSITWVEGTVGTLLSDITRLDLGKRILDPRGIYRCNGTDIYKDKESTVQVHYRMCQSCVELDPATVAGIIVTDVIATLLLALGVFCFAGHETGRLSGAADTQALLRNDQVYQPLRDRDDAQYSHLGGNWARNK
T2 sequence (P20963 22-164, chain 4 of 4): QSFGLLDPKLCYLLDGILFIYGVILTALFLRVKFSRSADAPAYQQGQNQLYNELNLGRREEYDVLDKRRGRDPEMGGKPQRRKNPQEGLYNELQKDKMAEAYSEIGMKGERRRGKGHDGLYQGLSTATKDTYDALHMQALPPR

human CD33 [4] = target: T1, human CD33; assay: cell-based or functional assay; remark: listed apart in the source
human CD33 [5] = target: T1, human CD33; assay: cell-based or functional assay; remark: listed apart in the source
human CD3 [6] = target: T2, human CD3; assay: flow cytometry titration on human CD3+ T cells/Jurkat, anti-His detection
Procedure: Cells were incubated with 100 μL of serial dilutions of CD33/CD3 2×2 T-cell engagers. After washing three times with FACS buffer the cells were incubated with 0.1 mL of […] mouse monoclonal anti-His antibody in the same buffer for 45 min on ice. After a second washing cycle, the cells were incubated with 0.1 mL of […] FITC-conjugated goat anti-mouse IgG antibodies under the same conditions as before. As a control, cells were incubated with the anti-His IgG followed by the FITC-conjugated goat anti-mouse IgG antibodies without anti-CD33 2×2 T-cell engagers. […] The fluorescence of 1×10⁴ living cells was measured using a Beckman-Coulter FC500 MPL flow cytometer using the MXP software (Beckman-Coulter, Krefeld, Germany) or a Millipore Guava EasyCyte flow cytometer using the Incyte software (Merck Millipore, Schwalbach, Germany). Mean fluorescence intensities of the cell samples were calculated using CXP software (Beckman-Coulter, Krefeld, Germany) or Incyte software (Merck Millipore, Schwalbach, Germany). After subtracting the fluorescence intensity values of the cells stained with the secondary and tertiary reagents alone the values were used for calculation of the KD values with the equation for one-site binding (hyperbola) of the GraphPad Prism (version 6.00 for Windows, GraphPad Software, La Jolla Calif. USA). […]

T1 sequence (P20138 18-364): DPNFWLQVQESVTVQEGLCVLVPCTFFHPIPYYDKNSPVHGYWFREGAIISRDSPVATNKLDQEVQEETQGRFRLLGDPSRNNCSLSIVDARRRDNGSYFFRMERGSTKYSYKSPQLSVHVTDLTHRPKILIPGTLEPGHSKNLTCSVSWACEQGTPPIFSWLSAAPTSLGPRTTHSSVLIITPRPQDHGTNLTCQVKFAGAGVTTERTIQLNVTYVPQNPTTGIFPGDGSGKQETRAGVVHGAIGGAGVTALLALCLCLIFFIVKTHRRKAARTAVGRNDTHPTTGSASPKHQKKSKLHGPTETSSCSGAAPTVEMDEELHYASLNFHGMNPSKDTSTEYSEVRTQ

| IC50 lysis of KG-1 cells with human T cells, E:T 5:1, 24 h (human CD33 [1]) [pM] | CD25 Induction EC50 (PBMC, 24 h) (human CD3 [3]) [pM] | CD69 Induction EC50 (PBMC, 24 h) (human CD3 [3]) [pM] | IC50 lysis of KG-1 cells (separate experiment) (human CD33 [1]) [pM] | EC50 calcein-release lysis of HL-60, E:T 25:1, 30 min (human CD33 [5]) [pM] | EC50 calcein-release lysis of HL-60, E:T 25:1, 60 min (human CD33 [5]) [pM] | EC50 calcein-release lysis of HL-60, E:T 25:1, 120 min (human CD33 [5]) [pM] | EC50 calcein-release lysis of HL-60, E:T 25:1, 180 min (human CD33 [5]) [pM] | EC50 calcein-release lysis of HL-60, E:T 25:1, 240 min (human CD33 [5]) [pM] | EC50 calcein-release lysis of HL-60, E:T 25:1, 300 min (human CD33 [5]) [pM] | Kd (human CD3 [6]) [pM] | Binder | EC50 cytotoxicity on HL-60, E:T 5:1, 20-24 h (human CD33 [2]) | EC50 cytotoxicity on KG-1, E:T 5:1, 20-24 h (human CD33 [2]) | EC50 cytotoxicity on U-937, E:T 5:1, 20-24 h (human CD33 [2]) | EC50 cytotoxicity, mean of HL-60, U-937, KG-1 (human CD33 [2]) | EC50 on HL-60 (cytotoxicity) (human CD33 [4]) [pM] |
| --- | --- | --- | --- | --- | --- | --- | --- | --- | --- | --- | --- | --- | --- | --- | --- | --- |
| ~0.5 | 1 | 2 | 5 | 4.8 | 2.5 | 1.6 | 1.6 | 1.5 | 1.6 |  | CD33/CD3 2×2 T-cell engager 16 (bispecific antibody) DIQMTQSPSSLSASVGDRVTITCRSSTGAVTTSNYANWVQQKPGKAPKALIGGTNKRAPGVPSRFSGSLIGDKATLTISSLQPEDFATYYCALWYSNLWVFGQGTKVEIKGGSGGSQVQLVQSGAEVKKPGASVKVSCKASGYTFTSYDINWVRQAPGQGLEWMGWMNPNSGNTGFAQKFQGRVTMTRDTSTSTVYMELSSLRSEDTAVYYCARDRANTDYSLGMDVWGQGTLVTVSSGGSGQSVLTQPPSASGTPGQRVTISCSGSRSNIGSNTVNWYQQLPGTAPKLLIYGNNQRPSGVPDRFSGSKSGTSASLAISGLQSEDEADYYCATWDDSLIGWVFGGGTKLTVLGGSGGSEVQLVESGGGLVQPGGSLRLSCAASGFTFSTYAMNWVRQAPGKGLEWVGRIRSKYNNYATYYADSVKDRFTISRDDSKNSLYLQMNSLKTEDTAVYYCARHGNFGNSYVSYFAYWGQGTLVTVSSAAAGSHHHHHH | 1.5 pM and 158 pg/mL | 1.8 pM and 189 pg/mL | 1.9 pM and 200 pg/mL | 1.7 pM and 179 pg/mL |  |
|  |  |  |  |  |  |  |  |  |  | 11900 | CD33/CD3 2×2 T-cell engager 18 (bispecific antibody, Homodimer; His-tagged form) EVQLVESGGGLVQPGGSLRLSCAASGFTFSTYAMNWVRQAPGKGLEWVGRIRSKYNNYATYYADSVKDRFTISRDDSKNSLYLQMNSLKTEDTAVYYCARHGNFGNSYVSYFAYWGQGTLVTVSSGGSGGSQSVLTQPPSVSGAPGQRVTISCTGSSSNIGAGYDVHWYQQLPGTAPKLLIYGNSNRPSGVPDRFSGSKSGTSASLAITGLQAEDEADYYCQSYDSSLSDVVFGGGTKLTVLGGSGQVQLVQSGAEVKKPGESLKISCKGSGYSFTSYWIGWVRQMPGKGLEWMGIIYPGDSDTRYSPSFQGQVTISADKSISTAYLQWSSLKASDTAMYYCARHKRGSDAFDIWGQGTTVTVSSGGSGGSDIQMTQSPSSLSASVGDRVTITCRSSTGAVTTSNYANWVQQKPGKAPKALIGGTNKRAPGVPSRFSGSLIGDKATLTISSLQPEDFATYYCALWYSNLWVFGQGTKVEIKAAAGSHHHHHH |  |  |  |  |  |

Continued, binder first:

| Binder | IC50 lysis of KG-1 cells with human T cells, E:T 5:1, 24 h (human CD33 [1]) [pM] | CD25 Induction EC50 (PBMC, 24 h) (human CD3 [3]) [pM] | CD69 Induction EC50 (PBMC, 24 h) (human CD3 [3]) [pM] | IC50 lysis of KG-1 cells (separate experiment) (human CD33 [1]) [pM] | EC50 calcein-release lysis of HL-60, E:T 25:1, 30 min (human CD33 [5]) [pM] | EC50 calcein-release lysis of HL-60, E:T 25:1, 60 min (human CD33 [5]) [pM] | EC50 calcein-release lysis of HL-60, E:T 25:1, 120 min (human CD33 [5]) [pM] | EC50 calcein-release lysis of HL-60, E:T 25:1, 180 min (human CD33 [5]) [pM] | EC50 calcein-release lysis of HL-60, E:T 25:1, 240 min (human CD33 [5]) [pM] | EC50 calcein-release lysis of HL-60, E:T 25:1, 300 min (human CD33 [5]) [pM] | Kd (human CD3 [6]) [pM] | EC50 cytotoxicity on HL-60, E:T 5:1, 20-24 h (human CD33 [2]) | EC50 cytotoxicity on KG-1, E:T 5:1, 20-24 h (human CD33 [2]) | EC50 cytotoxicity on U-937, E:T 5:1, 20-24 h (human CD33 [2]) | EC50 cytotoxicity, mean of HL-60, U-937, KG-1 (human CD33 [2]) | EC50 on HL-60 (cytotoxicity) (human CD33 [4]) [pM] |
| --- | --- | --- | --- | --- | --- | --- | --- | --- | --- | --- | --- | --- | --- | --- | --- | --- |
| CD33/CD3 2×2 T-cell engager 12 (bispecific antibody) DIQMTQSPSSLSASVGDRVTITCRSSTGAVTTSNYANWVQQKPGKAPKALIGGTNKRAPGVPSRFSGSLIGDKATLTISSLQPEDFATYYCALWYSNLWVFGQGTKVEIKGGSGGSQVQLVQSGAEVKKPGASVKVSCKASGYTFTSYDINWVRQAPGQGLEWMGWMNPNSGNTGFAQKFQGRVTMTRDTSTSTVYMELSSLRSEDTAVYYCARDRAVTDYYYGMDVWGQGTLVTVSSGGSGQSVLTQPPSASGTPGQRVTISCSGSRSNIGSNTVNWYQQLPGTAPKLLIYGNNQRPSGVPDRFSGSKSGTSASLAISGLQSEDEADYYCATWDDSLIGWVFGGGTKLTVLGGSGGSEVQLVESGGGLVQPGGSLRLSCAASGFTFSTYAMNWVRQAPGKGLEWVGRIRSKYNNYATYYADSVKDRFTISRDDSKNSLYLQMNSLKTEDTAVYYCARHGNFGNSYVSYFAYWGQGTLVTVSSAAAGSHHHHHH | ~0.01 | 6 | 3 |  |  |  |  |  |  |  |  | 1.3 pM and 137 pg/mL | 1.2 pM and 126 pg/mL | 0.8 pM and 84 pg/mL | 1.1 pM and 116 pg/mL |  |
| CD33/CD3 2×2 T-cell engager 14 (bispecific antibody) DIQMTQSPSSLSASVGDRVTITCRSSTGAVTTSNYANWVQQKPGKAPKALIGGTNKRAPGVPSRFSGSLIGDKATLTISSLQPEDFATYYCALWYSNLWVFGQGTKVEIKGGSGGSQVQLVQSGAEVKKPGASVKVSCKASGYTFTSYDINWVRQAPGQGLEWMGWMNPNSGNTGFAQKFQGRVTMTRDTSTSTVYMELSSLRSEDTAVYYCARDRANTDFSYGMDVWGQGTLVTVSSGGSGQSVLTQPPSASGTPGQRVTISCSGSRSNIGSNTVNWYQQLPGTAPKLLIYGNNQRPSGVPDRFSGSKSGTSASLAISGLQSEDEADYYCATWDDSLIGWVFGGGTKLTVLGGSGGSEVQLVESGGGLVQPGGSLRLSCAASGFTFSTYAMNWVRQAPGKGLEWVGRIRSKYNNYATYYADSVKDRFTISRDDSKNSLYLQMNSLKTEDTAVYYCARHGNFGNSYVSYFAYWGQGTLVTVSSAAAGSHHHHHH |  | 10 | 7 |  |  |  |  |  |  |  |  | 1.6 pM and 168 pg/mL | 2.6 pM and 273 pg/mL | 3.6 pM and 378 pg/mL | 2.6 pM and 273 pg/mL | 11.6 |
